Here are results for one variant from IntAct's records for PubMed 22902367.

Sequences and labels used below:
B1: Nectin-1 (Homo sapiens), Q15223 (parent)
chain: MARMGLAGAAGRWWGLALGLTAFFLPGVHSQVVQVNDSMYGFIGTDVVLHCSFANPLPSVKITQVTWQKSTNGSKQNVAIYNPSMGVSVLAPYRERVEFLRPSFTDGTIRLSRLELEDEGVYICEFATFPTGNRESQLNLTVMAKPTNWIEGTQAVLRAKKGQDDKVLVATCTSANGKPPSVVSWETRLKGEAEYQEIRNPNGTVTVISRYRLVPSREAHQQSLACIVNYHMDRFKESLTLNVQYEPEVTIEGFDGNWYLQRMDVKLTCKADANPPATEYHWTTLNGSLPKGVEAQNRTLFFKGPINYSLAGTYICEATNPIGTRSGQVEVNITEFPYTPSPPEHGRRAGPVPTAIIGGVAGSILLVLIVVGGIVVALRRRRHTFKGDYSTKKHVYGNGYSKAGIPQHHPPMAQNLQYPDDSDDEKKAGPLGGSSYEEEEEEEEGGGGGERKVGGPHPKYDEDAKRPYFTVDEAEARQDGYGDRTLGYQYDPEQLDLAENMVSQNDGSFISKKEWYV

Variants of B1 are the subject of the first assay. The note with it: with NECTIN3, Q9NQS3-1.
Chain of NECTIN3, Q9NQS3-1 (Q9NQS3 whole entry, looked up): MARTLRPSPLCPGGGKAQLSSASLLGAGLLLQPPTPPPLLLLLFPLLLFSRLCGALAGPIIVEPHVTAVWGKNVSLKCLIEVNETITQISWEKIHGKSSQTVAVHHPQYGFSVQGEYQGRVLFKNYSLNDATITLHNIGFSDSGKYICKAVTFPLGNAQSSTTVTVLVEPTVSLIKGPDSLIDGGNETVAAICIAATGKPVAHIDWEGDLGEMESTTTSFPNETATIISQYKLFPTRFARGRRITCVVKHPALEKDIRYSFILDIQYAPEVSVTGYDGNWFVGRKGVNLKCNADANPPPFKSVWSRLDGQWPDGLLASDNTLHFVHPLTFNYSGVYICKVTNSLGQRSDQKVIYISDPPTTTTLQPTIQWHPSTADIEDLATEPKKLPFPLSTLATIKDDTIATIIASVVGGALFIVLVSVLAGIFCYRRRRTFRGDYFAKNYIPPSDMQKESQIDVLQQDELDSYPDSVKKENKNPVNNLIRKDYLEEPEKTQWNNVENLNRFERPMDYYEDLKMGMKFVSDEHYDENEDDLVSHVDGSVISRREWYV
Take MARMGLAGAAGRWWGLALGLTAFFLPGVHSQVVQVNDSMYGFIGTDVVLHCSFANPLPSVKITQVTWQKSTNGSKQNVAIYNPSMGVSVLAPYRERVEFLRPSFTDGTIRLSRLELEDEGVYICEFATDPTGNRESQLNLTVMAKPTNWIEGTQAVLRAKKGQDDKVLVATCTSANGKPPSVVSWETRLKGEAEYQEIRNPNGTVTVISRYRLVPSREAHQQSLACIVNYHMDRFKESLTLNVQYEPEVTIEGFDGNWYLQRMDVKLTCKADANPPATEYHWTTLNGSLPKGVEAQNRTLFFKGPINYSLAGTYICEATNPIGTRSGQVEVNITEFPYTPSPPEHGRRAGPVPTAIIGGVAGSILLVLIVVGGIVVALRRRRHTFKGDYSTKKHVYGNGYSKAGIPQHHPPMAQNLQYPDDSDDEKKAGPLGGSSYEEEEEEEEGGGGGERKVGGPHPKYDEDAKRPYFTVDEAEARQDGYGDRTLGYQYDPEQLDLAENMVSQNDGSFISKKEWYV [F129D]: the “effect of a mutation on the interaction” value was “disrupting interaction strength”.

The variants in a further assay derive from B1. The note with it: with nect4_human NECTIN4, Q96NY8.
Chain of nect4_human NECTIN4, Q96NY8 (Q96NY8 whole entry): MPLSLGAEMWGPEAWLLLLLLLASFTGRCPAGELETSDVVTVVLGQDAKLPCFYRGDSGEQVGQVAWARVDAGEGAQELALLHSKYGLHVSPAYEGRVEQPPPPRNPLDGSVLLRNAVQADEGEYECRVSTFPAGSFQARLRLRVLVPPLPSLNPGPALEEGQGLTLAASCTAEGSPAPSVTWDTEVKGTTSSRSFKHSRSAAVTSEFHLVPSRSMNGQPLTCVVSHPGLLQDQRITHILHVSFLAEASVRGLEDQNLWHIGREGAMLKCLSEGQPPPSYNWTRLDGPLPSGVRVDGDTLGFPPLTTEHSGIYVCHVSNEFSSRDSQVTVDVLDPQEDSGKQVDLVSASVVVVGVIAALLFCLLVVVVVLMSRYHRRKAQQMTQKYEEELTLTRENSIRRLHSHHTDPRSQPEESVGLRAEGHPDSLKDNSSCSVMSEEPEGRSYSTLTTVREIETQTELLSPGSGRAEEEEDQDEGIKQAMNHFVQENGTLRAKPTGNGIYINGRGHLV
As to MARMGLAGAAGRWWGLALGLTAFFLPGVHSQVVQVNDSMYGFIGTDVVLHCSFANPLPSVKITQVTWQKSTNGSKQNVAIYNPSMGVSVLAPYRERVEFLRPSFTDGTIRLSRLELEDEGVYICEFATDPTGNRESQLNLTVMAKPTNWIEGTQAVLRAKKGQDDKVLVATCTSANGKPPSVVSWETRLKGEAEYQEIRNPNGTVTVISRYRLVPSREAHQQSLACIVNYHMDRFKESLTLNVQYEPEVTIEGFDGNWYLQRMDVKLTCKADANPPATEYHWTTLNGSLPKGVEAQNRTLFFKGPINYSLAGTYICEATNPIGTRSGQVEVNITEFPYTPSPPEHGRRAGPVPTAIIGGVAGSILLVLIVVGGIVVALRRRRHTFKGDYSTKKHVYGNGYSKAGIPQHHPPMAQNLQYPDDSDDEKKAGPLGGSSYEEEEEEEEGGGGGERKVGGPHPKYDEDAKRPYFTVDEAEARQDGYGDRTLGYQYDPEQLDLAENMVSQNDGSFISKKEWYV [F129D], the “effect of a mutation on the interaction” value is listed as “disrupting interaction strength”.
